The values below come from patent US20220090139A1.

Read-outs that look alike come from different tables or passages of the source.

The target in experiment [1] is 10-amber 13-amber hoc-del soc-del T4 heads (bacteriophage T4) (UniProt P04535). Kind of experiment: display titration on T4 heads, SDS-PAGE (FIG. 20).
Experiment [2] shares this target.
Experiment [3] has the same target. Nature of the experiment: in vitro display on T4 heads, pelleting, SDS-PAGE densitometry against gp23* (930 copies).
For experiment [4] the target is unchanged. Kind of experiment: Soc-TAT displayed on T4(Luci) heads used for transduction (FIG. 28).
For experiment [5] the target is unchanged. Kind of experiment: display on T4 heads, copies per capsid compared.
Experiment [6] has the same target. Nature of the experiment: co-display with Cas9-gRNA RNP on the same T4 head.
Experiment [7] has the same target. Nature of the experiment: display titration on T4 heads, SDS-PAGE (FIG. 21).
Experiment [8] has the same target. Nature of the experiment: display of RNP on T4 heads through Soc.
Experiment [9] shares this target. Kind of experiment: co-display with Cre-Hoc on the same T4 head.

As to “β-Gal-Soc (from UniProt P00722 1-1024; P03715 1-80) (enzyme)”, the ratio of protein molecules to binding sites at saturation (molecules per binding site) in [1] is 15 to 20. This substance had a Copies/capsid (copies per capsid) in experiment [2] of 320.

The substance RGD-Hoc (from UniProt P18056 1-376) registered a Copies/capsid (copies per capsid) in experiment [2] of 85.

In experiment [2], Cre-Soc (enzyme) showed a Copies/capsid (copies per capsid) of 630.

In [3], Cpf1-Soc (enzyme) yielded a Copies/capsid (copies per capsid) of 450.

For the substance Soc-TAT (from UniProt P03715 1-80), the Copies/capsid (copies per capsid) in experiment [2] was determined as 750. Besides, the copies per capsid (copies per capsid) in experiment [4] was determined as 520.

In turn, “NLS-Cas9-Soc (from UniProt Q99ZW2 1-1368) (enzyme)” displayed a Copies/capsid (copies per capsid) in [2] of 550.

Turning to GFP-Soc (from UniProt P03715 1-80), the Copies/capsid (copies per capsid) in experiment [2] was 660.

In turn, Soc-RGD (from UniProt P03715 1-80) registered a Copies/capsid (copies per capsid) in experiment [2] of 710. Also, the fold copy number against RGD-Hoc in [5] turned out to be 8.3 fold.

In [6], Cre-Hoc (enzyme) came in with a copies per capsid (molecules per AV) of 50. Moreover, the ratio of protein molecules to binding sites at saturation (molecules per binding site) in [7] lay in the range of 15 to 20. The substance further displayed a Copies/capsid (copies per capsid) in experiment [2] of 95.

Take “Cas9-gRNA ribonucleoprotein (RNP) complex fused to Soc (from UniProt Q99ZW2 1-1368)”: the copies per capsid (copies per capsid) in experiment [8] is 280. Further, the copies per capsid (molecules per AV) in experiment [9] worked out at 270.
